Assay results published in US20160159879A1 (UNIVERSITY OF NORTH CAROLINA AT CHAPEL HILL, published 2016).
Ends that are not written are not given here. * marks the point of attachment. Biotin = O=C1N[C@H]2[C@H](CS[C@H]2CCCCC(=O)*)N1

Key:
[1] = target: yfp-tagged αENaC stably expressed in JME nasal epithelial cells; test: fluorescence binding isotherm on polarized JME cells expressing yfp-αENaC, 30 min, empty-vector cells as non-specific binding, Hill fit
[2] = system: T1, Recombinant V5/6His-tagged SPLUNC1 purified from HEK293 media
T1 sequence: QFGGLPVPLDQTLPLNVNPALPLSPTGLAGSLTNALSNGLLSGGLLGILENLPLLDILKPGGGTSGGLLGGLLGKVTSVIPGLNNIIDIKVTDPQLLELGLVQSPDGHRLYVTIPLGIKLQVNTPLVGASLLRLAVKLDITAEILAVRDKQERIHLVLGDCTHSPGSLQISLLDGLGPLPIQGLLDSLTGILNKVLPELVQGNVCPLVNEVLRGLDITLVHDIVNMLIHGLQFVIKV

[3] = target: ENaC endogenous to primary human bronchial epithelial cultures (human) (UniProt P37088); test: cell-based or functional assay
[4] = target: αβγENaC expressed in Xenopus laevis oocytes (rat) (UniProt P37089); test: cell-based or functional assay
[5] = target: αβγENaC expressed in Xenopus laevis oocytes (rat, UniProt P37089 1-698; P37090 1-638; P37091 1-650); test: cell-based or functional assay
[6] = target: ENaC endogenous to primary human bronchial epithelial cultures (human, UniProt P37088 1-669; P51168 1-640; P51170 1-649); test: cell-based or functional assay
[7] = target: T2, Human αENaC subunit, HA (N-terminus) and V5 (C-terminus) tagged, expressed alone in HEK293T cells (human, UniProt P37088 1-669); test: pull-down with biotinylated S18 of subunits expressed individually in HEK cells, Western blot
T2 sequence (looked up): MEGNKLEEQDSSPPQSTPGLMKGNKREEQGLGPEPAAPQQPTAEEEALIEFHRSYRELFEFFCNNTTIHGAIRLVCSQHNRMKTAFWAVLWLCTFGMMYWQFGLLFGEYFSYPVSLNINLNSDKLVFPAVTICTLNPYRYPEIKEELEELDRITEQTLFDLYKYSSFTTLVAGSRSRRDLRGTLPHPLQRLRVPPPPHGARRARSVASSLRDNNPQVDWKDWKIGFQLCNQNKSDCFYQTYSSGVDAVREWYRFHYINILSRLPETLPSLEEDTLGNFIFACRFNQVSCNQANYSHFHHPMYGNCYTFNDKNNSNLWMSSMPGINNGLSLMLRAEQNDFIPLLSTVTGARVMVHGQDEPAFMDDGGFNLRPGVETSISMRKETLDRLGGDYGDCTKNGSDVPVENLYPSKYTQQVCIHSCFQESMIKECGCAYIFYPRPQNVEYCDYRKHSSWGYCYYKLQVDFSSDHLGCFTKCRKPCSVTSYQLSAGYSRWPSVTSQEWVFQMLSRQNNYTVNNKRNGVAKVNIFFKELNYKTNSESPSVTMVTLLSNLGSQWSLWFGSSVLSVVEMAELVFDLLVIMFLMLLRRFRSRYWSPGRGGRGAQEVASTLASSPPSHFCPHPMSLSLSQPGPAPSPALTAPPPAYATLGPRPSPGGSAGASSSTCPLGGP

[8] = target: T3, Human γENaC subunit, HA (N-terminus) and V5 (C-terminus) tagged, expressed alone in HEK293T cells (human, UniProt P51170 1-649); test: as above
T3 sequence (looked up): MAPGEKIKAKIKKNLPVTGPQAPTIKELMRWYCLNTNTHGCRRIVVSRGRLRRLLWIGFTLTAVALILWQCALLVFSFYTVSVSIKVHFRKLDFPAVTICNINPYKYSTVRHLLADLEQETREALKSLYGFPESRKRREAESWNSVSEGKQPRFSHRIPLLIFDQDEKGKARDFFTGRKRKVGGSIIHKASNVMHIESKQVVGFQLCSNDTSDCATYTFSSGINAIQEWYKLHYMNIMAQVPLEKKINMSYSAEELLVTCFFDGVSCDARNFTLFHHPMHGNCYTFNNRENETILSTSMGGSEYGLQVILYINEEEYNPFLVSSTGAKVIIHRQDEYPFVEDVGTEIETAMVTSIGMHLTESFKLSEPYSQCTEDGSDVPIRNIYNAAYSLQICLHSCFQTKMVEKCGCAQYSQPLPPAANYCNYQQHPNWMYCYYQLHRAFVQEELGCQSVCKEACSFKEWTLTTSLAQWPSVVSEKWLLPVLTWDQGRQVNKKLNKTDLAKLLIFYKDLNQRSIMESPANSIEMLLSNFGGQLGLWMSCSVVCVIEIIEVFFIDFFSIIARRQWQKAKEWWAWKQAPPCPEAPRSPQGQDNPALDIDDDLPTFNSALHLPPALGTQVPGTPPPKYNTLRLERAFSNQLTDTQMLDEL

[9] = target: T4, Human βENaC subunit, HA (N-terminus) and V5 (C-terminus) tagged, expressed in HEK293T cells (human, UniProt P51168 1-640, glycosylated (EndoH and tunicamycin experiments)); test: peptide pull-down on neutravidin beads, Western blot with anti-V5
T4 sequence (looked up): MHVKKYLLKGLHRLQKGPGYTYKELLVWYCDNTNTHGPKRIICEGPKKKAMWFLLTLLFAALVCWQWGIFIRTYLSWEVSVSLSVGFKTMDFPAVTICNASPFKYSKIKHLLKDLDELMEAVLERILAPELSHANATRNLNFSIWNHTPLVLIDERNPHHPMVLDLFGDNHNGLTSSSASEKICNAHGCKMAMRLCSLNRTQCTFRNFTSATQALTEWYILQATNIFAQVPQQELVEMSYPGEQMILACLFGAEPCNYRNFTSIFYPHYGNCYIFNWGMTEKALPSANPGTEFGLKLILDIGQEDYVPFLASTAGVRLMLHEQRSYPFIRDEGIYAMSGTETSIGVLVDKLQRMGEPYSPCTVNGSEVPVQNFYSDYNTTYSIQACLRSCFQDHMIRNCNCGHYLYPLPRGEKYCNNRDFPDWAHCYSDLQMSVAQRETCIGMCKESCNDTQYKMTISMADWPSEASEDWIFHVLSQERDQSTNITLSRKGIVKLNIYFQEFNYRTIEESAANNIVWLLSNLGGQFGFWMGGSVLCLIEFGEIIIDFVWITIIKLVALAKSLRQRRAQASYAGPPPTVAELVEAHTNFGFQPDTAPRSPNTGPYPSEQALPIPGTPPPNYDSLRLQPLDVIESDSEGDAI

αβγENaC expressed in Xenopus laevis oocytes (rat), sequence (P37089 whole entry, chain 1 of 3): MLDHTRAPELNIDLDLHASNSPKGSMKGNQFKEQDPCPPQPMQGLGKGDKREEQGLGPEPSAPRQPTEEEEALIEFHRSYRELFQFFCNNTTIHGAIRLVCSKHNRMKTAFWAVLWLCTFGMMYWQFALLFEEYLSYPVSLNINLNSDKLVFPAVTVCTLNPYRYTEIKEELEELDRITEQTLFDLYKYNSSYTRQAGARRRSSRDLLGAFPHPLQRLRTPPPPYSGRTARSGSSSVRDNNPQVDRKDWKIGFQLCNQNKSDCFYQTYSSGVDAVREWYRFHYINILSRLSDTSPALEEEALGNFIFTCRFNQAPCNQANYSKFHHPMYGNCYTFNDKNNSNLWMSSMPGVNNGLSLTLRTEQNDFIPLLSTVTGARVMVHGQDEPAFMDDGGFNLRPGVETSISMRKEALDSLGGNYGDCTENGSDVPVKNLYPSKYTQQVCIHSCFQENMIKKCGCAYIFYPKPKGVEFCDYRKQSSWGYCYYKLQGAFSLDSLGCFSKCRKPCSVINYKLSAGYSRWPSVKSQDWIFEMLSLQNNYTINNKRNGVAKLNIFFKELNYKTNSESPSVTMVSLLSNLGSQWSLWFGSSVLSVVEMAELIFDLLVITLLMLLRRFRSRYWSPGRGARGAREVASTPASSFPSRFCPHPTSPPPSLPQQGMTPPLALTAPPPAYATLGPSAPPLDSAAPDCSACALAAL
αβγENaC expressed in Xenopus laevis oocytes (rat), sequence (P37090 whole entry, chain 2 of 3, further chain): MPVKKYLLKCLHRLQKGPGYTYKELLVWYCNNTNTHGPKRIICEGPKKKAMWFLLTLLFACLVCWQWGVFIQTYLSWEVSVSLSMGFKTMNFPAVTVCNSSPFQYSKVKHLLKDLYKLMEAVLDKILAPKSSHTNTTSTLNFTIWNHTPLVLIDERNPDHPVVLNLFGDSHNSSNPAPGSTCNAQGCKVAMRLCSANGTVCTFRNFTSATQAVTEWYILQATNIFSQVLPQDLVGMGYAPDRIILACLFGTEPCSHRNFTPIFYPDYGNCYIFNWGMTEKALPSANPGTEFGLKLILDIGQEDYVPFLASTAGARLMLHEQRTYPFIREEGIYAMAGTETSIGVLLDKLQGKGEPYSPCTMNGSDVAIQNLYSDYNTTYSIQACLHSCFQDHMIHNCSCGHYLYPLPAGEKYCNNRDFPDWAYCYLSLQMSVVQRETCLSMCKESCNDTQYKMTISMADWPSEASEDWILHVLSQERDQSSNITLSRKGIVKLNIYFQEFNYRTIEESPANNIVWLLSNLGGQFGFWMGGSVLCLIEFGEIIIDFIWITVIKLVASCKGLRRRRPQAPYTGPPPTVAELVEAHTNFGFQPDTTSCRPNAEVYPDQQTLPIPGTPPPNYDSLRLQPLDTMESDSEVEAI
αβγENaC expressed in Xenopus laevis oocytes (rat), sequence (P37091 whole entry, chain 3 of 3, further chain): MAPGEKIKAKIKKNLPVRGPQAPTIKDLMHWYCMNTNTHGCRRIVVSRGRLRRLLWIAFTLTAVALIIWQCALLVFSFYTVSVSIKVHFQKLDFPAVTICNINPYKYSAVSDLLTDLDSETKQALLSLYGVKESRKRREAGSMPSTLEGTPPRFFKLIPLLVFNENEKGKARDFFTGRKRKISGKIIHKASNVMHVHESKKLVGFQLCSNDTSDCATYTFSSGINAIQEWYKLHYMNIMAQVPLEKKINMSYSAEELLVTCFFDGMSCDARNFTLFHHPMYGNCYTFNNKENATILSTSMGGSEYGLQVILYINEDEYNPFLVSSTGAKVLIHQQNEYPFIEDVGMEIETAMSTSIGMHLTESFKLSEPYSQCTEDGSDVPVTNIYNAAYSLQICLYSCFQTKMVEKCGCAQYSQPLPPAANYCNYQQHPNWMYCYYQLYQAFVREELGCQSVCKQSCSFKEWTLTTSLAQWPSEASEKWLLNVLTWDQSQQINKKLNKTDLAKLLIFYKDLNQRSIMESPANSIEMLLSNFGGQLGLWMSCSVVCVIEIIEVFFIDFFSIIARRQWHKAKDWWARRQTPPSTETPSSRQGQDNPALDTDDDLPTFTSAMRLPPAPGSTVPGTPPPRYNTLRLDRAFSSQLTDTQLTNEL
αβγENaC expressed in Xenopus laevis oocytes, sequence (P37089 whole entry, chain 1 of 3): as the sequence (P37089 whole entry, chain 1 of 3) above
αβγENaC expressed in Xenopus laevis oocytes, sequence (P37090 whole entry, chain 2 of 3): as the sequence (P37090 whole entry, chain 2 of 3, further chain) above
αβγENaC expressed in Xenopus laevis oocytes, sequence (P37091 whole entry, chain 3 of 3): as the sequence (P37091 whole entry, chain 3 of 3, further chain) above

Texas red-labeled recombinant SPLUNC1 (from UniProt Q9NP55 20-256)
Kd [1]: 0.055 µg/mL

Trypsin
cleavage of the fluorogenic substrate BGAR-MCA by 1.0 or 0.3 U/ml trypsin [2]: 50 ng/ml rSPLUNC1 had only a modest affect (˜10%) on the ability of either 1.0 or 0.3 U/ml trypsin to cleave a fluorogenic substrate

Recombinant V5/6His-tagged SPLUNC1 purified from HEK293 media (from UniProt Q9NP55 20-256)
transepithelial electrical resistance [3]: 33% | decrease in ENaC currents (amiloride-sensitive), two electrode voltage clamp in oocytes [4]: 70%

B1: V5-tagged SPLUNC1 expressed in Xenopus oocytes from injected cRNA (other, not shown: small tags and cut ends)
chain: T1 sequence
decrease in amiloride-sensitive current relative to control oocytes [5]: ~70%

B2: S18 peptide (amino acids 22-39 of human SPLUNC1) (peptide)
peptide: GGLPVPLDQTLPLNVNPA
IC50, dose response of ASL height in CF HBECs 8 h post-S18 addition [6]: 0.6 µM

B3: Biotinylated S18 peptide (peptide)
peptide: Biotin-GGLPVPLDQTLPLNVNPA
notes: also called G22-A39
binding result [7]: no binding | binding result [8]: no binding

B4: Control peptide ABC (alphabetized G22-A39), biotinylated (peptide)
peptide: Biotin-ADGGLLLLNNPPPPQTVV
notes: also called ADG
binding result [9]: no binding
